Molecular target: demineralized, guanidine-extracted bovine collagen carrier matrix material (bovine) (UniProt P02453)
Experiment: OP-1 in 47.5% ethanol/0.01% TFA incubated 3 h with bovine collagen matrix; fraction bound to the matrix before lyophilization

Sequence of OP-1 (P18075 293-431 limits assumed): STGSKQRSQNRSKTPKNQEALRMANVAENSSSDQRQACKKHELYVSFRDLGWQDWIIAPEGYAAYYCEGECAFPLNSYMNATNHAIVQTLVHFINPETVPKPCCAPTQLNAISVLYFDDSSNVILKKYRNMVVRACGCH

Substance: OP-1 (from UniProt P18075 293-431) (ligand)
- % OP-1 bound at 3 hr: 53 to 64%
